This is an account of results in article PMC2891831, “Insight into the Mechanisms of Adenovirus Capsid Disassembly from Studies of Defensin Neutralization” (PLoS Pathogens, 2010).

The target of assay [1] is T1, CAR receptor (human (endogenous in A549), UniProt P78310 20-365).
T1 construct: source: endogenous, on A549 cells
T1 sequence: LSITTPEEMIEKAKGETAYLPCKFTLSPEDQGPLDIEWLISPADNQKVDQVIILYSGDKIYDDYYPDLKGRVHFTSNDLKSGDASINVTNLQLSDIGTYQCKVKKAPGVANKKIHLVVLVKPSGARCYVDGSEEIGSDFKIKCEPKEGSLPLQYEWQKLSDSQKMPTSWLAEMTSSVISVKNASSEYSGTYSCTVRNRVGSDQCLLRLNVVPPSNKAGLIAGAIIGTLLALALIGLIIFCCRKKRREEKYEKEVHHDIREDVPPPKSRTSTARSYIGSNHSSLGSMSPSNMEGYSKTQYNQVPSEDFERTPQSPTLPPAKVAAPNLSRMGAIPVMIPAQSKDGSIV
Put plainly: flow cytometry on cells; as a6, but the Alexa Fluor 488-labelled Ad5.eGFP was pre-incubated with 20 µM HD5 for 45 min on ice. The conditions noted are these: one partner purified. On the technique in general: In flow cytometry, cells or beads pass a laser one at a time.

The target of assay [2] is T1, CAR receptor. Put plainly: flow cytometry on cells; A549 cells in PBS + 0.2% sodium azide incubated with or without 200 nM 5FK or 16FK, 45 min on ice (100 nM in the legend), then combined with Alexa Fluor 488-labelled Ad5.eGFP without defensin (virus pre-incubated with 20 µM HD5-Abu was equivalent to virus alone), 45 min on ice. As to conditions: one partner purified.

B1: recombinant HAdV-5 fiber knob (domain or fragment)
chain: GAITVGNKNNDKLTLWTTPAPSPNCRLNAEKDAKLTLVLTKCGSQILATVSVLAVKGSLAPISGTVQSAHLIIRFDENGVLLNNSFLDPEYWNFRNGDLTEGTAYTNAVGFMPNLSAYPKSHGKTAKSNIVSQVYLNGDKTKPVTLTITLNGTQETGDTTPSAYSMSFSWDWSGHNYINEIFATSSYTFSYIAQE
notes: fiber knob, residues 387-581 of the HAdV-5 fiber; also called 5FK
As for B1, in the assay with CAR receptor [1], the “fold reduction of HAdV-5 binding to cells with 5FK compared to 16FK, virus pre-incubated with HD5” value was 1.6 fold. The “fold reduction of HAdV-5 binding to cells with 5FK compared to 16FK” value with CAR receptor [2] is 5.2 fold.
